From paper doi:10.1101/748145 (bioRxiv, 2019)

B1: LetB three-ring truncation mutant (rings 2-5 deleted), TM helix removed (domain or fragment)
chain: QDRGNTVTIDFMSADGIVPGRTPVRYQGVEVGTVQDISLSDDLRKIEVKVSIKSDMKDALREETQFWLVTPKASLAGVSGLDALVGGNYIGMMPGKGKEQDHFVALDTQPKYRLDNGSETAARAVGGQITLHAFDAGKLAVGMPIRYLGIDIGQIQTLDLITARNEVQAKAVLYPEYVQTFARGGTRFSVVTPQISAAGVEHLDTILQPYINVEPGRGNPRRDFELQEATITDSRYLDGLSIIVEAPEAGSLGIGTPVLFRGLEVGTVTGMTLGTLSDRVMIAMRISKRYQHLVRNNSVFWLASGYSLDFGLTGGVVKTGTFNQFIRGGIAFATPPGTPLAPKAQEGKHFLLQESEPKEWREWGTALPK
B2: LetB L243N (periplasmic domain) (domain or fragment, E. coli, UniProt P76272 43-877, looked up)
chain: QDRGNTVTIDFMSADGIVPGRTPVRYQGVEVGTVQDISLSDDLRKIEVKVSIKSDMKDALREETQFWLVTPKASLAGVSGLDALVGGNYIGMMPGKGKEQDHFVALDTQPKYRLDNGDLMIHLQAPDLGSLNSGSLVYFRKIPVGKVYDYAINPNKQGVVIDVLIERRFTDLVKKGSRFWNVSGVDANVSISGAKVKLESNAALVNGAIAFDSPEESKPAEAEDTFGLYEDLAHSQRGVIIKLELPSGAGLTADSTPLMYQGLEVGQLTKLDLNPGGKVTGEMTVDPSVVTLLRENTRIELRNPKLSLSDANLSALLTGKTFELVPGDGEPRKEFVVVPGEKALLHEPDVLTLTLTAPESYGIDAGQPLILHGVQVGQVIDRKLTSKGVTFTVAIEPQHRELVKGDSKFVVNSRVDVKVGLDGVEFLGASASEWINGGIRILPGDKGEMKASYPLYANLEKALENSLSDLPTTTVSLSAETLPDVQAGSVVLYRKFEVGEVITVRPRANAFDIDLHIKPEYRNLLTSNSVFWAEGGAKVQLNGSGLTVQASPLSRALKGAISFDNLSGASASQRKGDKRILYASETAARAVGGQITLHAFDAGKLAVGMPIRYLGIDIGQIQTLDLITARNEVQAKAVLYPEYVQTFARGGTRFSVVTPQISAAGVEHLDTILQPYINVEPGRGNPRRDFELQEATITDSRYLDGLSIIVEAPEAGSLGIGTPVLFRGLEVGTVTGMTLGTLSDRVMIAMRISKRYQHLVRNNSVFWLASGYSLDFGLTGGVVKTGTFNQFIRGGIAFATPPGTPLAPKAQEGKHFLLQESEPKEWREWGTALPK
B3: LetB L358N (periplasmic domain) (domain or fragment, E. coli, UniProt P76272 43-877, looked up)
chain: QDRGNTVTIDFMSADGIVPGRTPVRYQGVEVGTVQDISLSDDLRKIEVKVSIKSDMKDALREETQFWLVTPKASLAGVSGLDALVGGNYIGMMPGKGKEQDHFVALDTQPKYRLDNGDLMIHLQAPDLGSLNSGSLVYFRKIPVGKVYDYAINPNKQGVVIDVLIERRFTDLVKKGSRFWNVSGVDANVSISGAKVKLESLAALVNGAIAFDSPEESKPAEAEDTFGLYEDLAHSQRGVIIKLELPSGAGLTADSTPLMYQGLEVGQLTKLDLNPGGKVTGEMTVDPSVVTLLRENTRIELRNPKLSLSDANLSANLTGKTFELVPGDGEPRKEFVVVPGEKALLHEPDVLTLTLTAPESYGIDAGQPLILHGVQVGQVIDRKLTSKGVTFTVAIEPQHRELVKGDSKFVVNSRVDVKVGLDGVEFLGASASEWINGGIRILPGDKGEMKASYPLYANLEKALENSLSDLPTTTVSLSAETLPDVQAGSVVLYRKFEVGEVITVRPRANAFDIDLHIKPEYRNLLTSNSVFWAEGGAKVQLNGSGLTVQASPLSRALKGAISFDNLSGASASQRKGDKRILYASETAARAVGGQITLHAFDAGKLAVGMPIRYLGIDIGQIQTLDLITARNEVQAKAVLYPEYVQTFARGGTRFSVVTPQISAAGVEHLDTILQPYINVEPGRGNPRRDFELQEATITDSRYLDGLSIIVEAPEAGSLGIGTPVLFRGLEVGTVTGMTLGTLSDRVMIAMRISKRYQHLVRNNSVFWLASGYSLDFGLTGGVVKTGTFNQFIRGGIAFATPPGTPLAPKAQEGKHFLLQESEPKEWREWGTALPK
B4: LetB V247N (periplasmic domain) (domain or fragment, E. coli, UniProt P76272 43-877, looked up)
chain: QDRGNTVTIDFMSADGIVPGRTPVRYQGVEVGTVQDISLSDDLRKIEVKVSIKSDMKDALREETQFWLVTPKASLAGVSGLDALVGGNYIGMMPGKGKEQDHFVALDTQPKYRLDNGDLMIHLQAPDLGSLNSGSLVYFRKIPVGKVYDYAINPNKQGVVIDVLIERRFTDLVKKGSRFWNVSGVDANVSISGAKVKLESLAALNNGAIAFDSPEESKPAEAEDTFGLYEDLAHSQRGVIIKLELPSGAGLTADSTPLMYQGLEVGQLTKLDLNPGGKVTGEMTVDPSVVTLLRENTRIELRNPKLSLSDANLSALLTGKTFELVPGDGEPRKEFVVVPGEKALLHEPDVLTLTLTAPESYGIDAGQPLILHGVQVGQVIDRKLTSKGVTFTVAIEPQHRELVKGDSKFVVNSRVDVKVGLDGVEFLGASASEWINGGIRILPGDKGEMKASYPLYANLEKALENSLSDLPTTTVSLSAETLPDVQAGSVVLYRKFEVGEVITVRPRANAFDIDLHIKPEYRNLLTSNSVFWAEGGAKVQLNGSGLTVQASPLSRALKGAISFDNLSGASASQRKGDKRILYASETAARAVGGQITLHAFDAGKLAVGMPIRYLGIDIGQIQTLDLITARNEVQAKAVLYPEYVQTFARGGTRFSVVTPQISAAGVEHLDTILQPYINVEPGRGNPRRDFELQEATITDSRYLDGLSIIVEAPEAGSLGIGTPVLFRGLEVGTVTGMTLGTLSDRVMIAMRISKRYQHLVRNNSVFWLASGYSLDFGLTGGVVKTGTFNQFIRGGIAFATPPGTPLAPKAQEGKHFLLQESEPKEWREWGTALPK
B5: LetB L246N (periplasmic domain) (domain or fragment, E. coli, UniProt P76272 43-877, looked up)
chain: QDRGNTVTIDFMSADGIVPGRTPVRYQGVEVGTVQDISLSDDLRKIEVKVSIKSDMKDALREETQFWLVTPKASLAGVSGLDALVGGNYIGMMPGKGKEQDHFVALDTQPKYRLDNGDLMIHLQAPDLGSLNSGSLVYFRKIPVGKVYDYAINPNKQGVVIDVLIERRFTDLVKKGSRFWNVSGVDANVSISGAKVKLESLAANVNGAIAFDSPEESKPAEAEDTFGLYEDLAHSQRGVIIKLELPSGAGLTADSTPLMYQGLEVGQLTKLDLNPGGKVTGEMTVDPSVVTLLRENTRIELRNPKLSLSDANLSALLTGKTFELVPGDGEPRKEFVVVPGEKALLHEPDVLTLTLTAPESYGIDAGQPLILHGVQVGQVIDRKLTSKGVTFTVAIEPQHRELVKGDSKFVVNSRVDVKVGLDGVEFLGASASEWINGGIRILPGDKGEMKASYPLYANLEKALENSLSDLPTTTVSLSAETLPDVQAGSVVLYRKFEVGEVITVRPRANAFDIDLHIKPEYRNLLTSNSVFWAEGGAKVQLNGSGLTVQASPLSRALKGAISFDNLSGASASQRKGDKRILYASETAARAVGGQITLHAFDAGKLAVGMPIRYLGIDIGQIQTLDLITARNEVQAKAVLYPEYVQTFARGGTRFSVVTPQISAAGVEHLDTILQPYINVEPGRGNPRRDFELQEATITDSRYLDGLSIIVEAPEAGSLGIGTPVLFRGLEVGTVTGMTLGTLSDRVMIAMRISKRYQHLVRNNSVFWLASGYSLDFGLTGGVVKTGTFNQFIRGGIAFATPPGTPLAPKAQEGKHFLLQESEPKEWREWGTALPK
B6: LetB L355N (periplasmic domain) (domain or fragment, E. coli, UniProt P76272 43-877, looked up)
chain: QDRGNTVTIDFMSADGIVPGRTPVRYQGVEVGTVQDISLSDDLRKIEVKVSIKSDMKDALREETQFWLVTPKASLAGVSGLDALVGGNYIGMMPGKGKEQDHFVALDTQPKYRLDNGDLMIHLQAPDLGSLNSGSLVYFRKIPVGKVYDYAINPNKQGVVIDVLIERRFTDLVKKGSRFWNVSGVDANVSISGAKVKLESLAALVNGAIAFDSPEESKPAEAEDTFGLYEDLAHSQRGVIIKLELPSGAGLTADSTPLMYQGLEVGQLTKLDLNPGGKVTGEMTVDPSVVTLLRENTRIELRNPKLSLSDANNSALLTGKTFELVPGDGEPRKEFVVVPGEKALLHEPDVLTLTLTAPESYGIDAGQPLILHGVQVGQVIDRKLTSKGVTFTVAIEPQHRELVKGDSKFVVNSRVDVKVGLDGVEFLGASASEWINGGIRILPGDKGEMKASYPLYANLEKALENSLSDLPTTTVSLSAETLPDVQAGSVVLYRKFEVGEVITVRPRANAFDIDLHIKPEYRNLLTSNSVFWAEGGAKVQLNGSGLTVQASPLSRALKGAISFDNLSGASASQRKGDKRILYASETAARAVGGQITLHAFDAGKLAVGMPIRYLGIDIGQIQTLDLITARNEVQAKAVLYPEYVQTFARGGTRFSVVTPQISAAGVEHLDTILQPYINVEPGRGNPRRDFELQEATITDSRYLDGLSIIVEAPEAGSLGIGTPVLFRGLEVGTVTGMTLGTLSDRVMIAMRISKRYQHLVRNNSVFWLASGYSLDFGLTGGVVKTGTFNQFIRGGIAFATPPGTPLAPKAQEGKHFLLQESEPKEWREWGTALPK
B7: LetB L359N (periplasmic domain) (domain or fragment, E. coli, UniProt P76272 43-877, looked up)
chain: QDRGNTVTIDFMSADGIVPGRTPVRYQGVEVGTVQDISLSDDLRKIEVKVSIKSDMKDALREETQFWLVTPKASLAGVSGLDALVGGNYIGMMPGKGKEQDHFVALDTQPKYRLDNGDLMIHLQAPDLGSLNSGSLVYFRKIPVGKVYDYAINPNKQGVVIDVLIERRFTDLVKKGSRFWNVSGVDANVSISGAKVKLESLAALVNGAIAFDSPEESKPAEAEDTFGLYEDLAHSQRGVIIKLELPSGAGLTADSTPLMYQGLEVGQLTKLDLNPGGKVTGEMTVDPSVVTLLRENTRIELRNPKLSLSDANLSALNTGKTFELVPGDGEPRKEFVVVPGEKALLHEPDVLTLTLTAPESYGIDAGQPLILHGVQVGQVIDRKLTSKGVTFTVAIEPQHRELVKGDSKFVVNSRVDVKVGLDGVEFLGASASEWINGGIRILPGDKGEMKASYPLYANLEKALENSLSDLPTTTVSLSAETLPDVQAGSVVLYRKFEVGEVITVRPRANAFDIDLHIKPEYRNLLTSNSVFWAEGGAKVQLNGSGLTVQASPLSRALKGAISFDNLSGASASQRKGDKRILYASETAARAVGGQITLHAFDAGKLAVGMPIRYLGIDIGQIQTLDLITARNEVQAKAVLYPEYVQTFARGGTRFSVVTPQISAAGVEHLDTILQPYINVEPGRGNPRRDFELQEATITDSRYLDGLSIIVEAPEAGSLGIGTPVLFRGLEVGTVTGMTLGTLSDRVMIAMRISKRYQHLVRNNSVFWLASGYSLDFGLTGGVVKTGTFNQFIRGGIAFATPPGTPLAPKAQEGKHFLLQESEPKEWREWGTALPK
B8: LetB two-ring truncation mutant (rings 2-6 deleted), TM helix removed (domain or fragment)
chain: QDRGNTVTIDFMSADGIVPGRTPVRYQGVEVGTVQDISLSDDLRKIEVKVSIKSDMKDALREETQFWLVTPKASLAGVSGLDALVGGNYIGMMPGKGKEQDHFVALDTQPKYRLDNGDGLSIIVEAPEAGSLGIGTPVLFRGLEVGTVTGMTLGTLSDRVMIAMRISKRYQHLVRNNSVFWLASGYSLDFGLTGGVVKTGTFNQFIRGGIAFATPPGTPLAPKAQEGKHFLLQESEPKEWREWGTALPK

Target: the molecule itself
Assay: negative stain EM

Stoichiometry N, 6:
B1
B2
B3
B4
B5
B6
B7
B8
